Experimental data: paper PMC10442045

What was measured:
Settings in all cases: LightShift EMSA: 1x binding buffer, 2.5% glycerol, 5 mM MgCl2, 0.05% NP-40, 5 mM EDTA, 20 ng probe, 0-0.5 ng protein (so in the source), 20 uL, 20 min at 26 C; 6% …
[1] = target: T1, OmpR (Pseudomonas aeruginosa PA14) (UniProt A0A0H2ZIR0); experiment: competition
T1 sequence: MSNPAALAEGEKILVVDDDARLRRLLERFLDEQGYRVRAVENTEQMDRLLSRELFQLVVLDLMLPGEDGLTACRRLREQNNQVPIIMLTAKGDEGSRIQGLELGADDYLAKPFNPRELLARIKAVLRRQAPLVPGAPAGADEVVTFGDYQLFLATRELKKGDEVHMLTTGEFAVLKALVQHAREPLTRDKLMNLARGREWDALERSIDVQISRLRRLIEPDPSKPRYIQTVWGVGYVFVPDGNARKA

[2] = target: T2, OxyR (Pseudomonas aeruginosa PA14) (UniProt A0A0H2ZI92); experiment: competition
T2 sequence: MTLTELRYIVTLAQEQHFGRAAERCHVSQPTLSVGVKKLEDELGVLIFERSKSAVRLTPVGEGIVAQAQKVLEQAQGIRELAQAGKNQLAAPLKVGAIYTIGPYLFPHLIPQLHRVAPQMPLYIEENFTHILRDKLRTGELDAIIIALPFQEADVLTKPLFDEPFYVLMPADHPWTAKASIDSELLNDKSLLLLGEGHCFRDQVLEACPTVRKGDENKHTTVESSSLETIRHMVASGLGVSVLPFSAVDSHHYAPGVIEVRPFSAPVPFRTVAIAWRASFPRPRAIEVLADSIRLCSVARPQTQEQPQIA

[3] = target: T1, OmpR (Pseudomonas aeruginosa PA14); experiment: EMSA
[4] = target: T2, OxyR (Pseudomonas aeruginosa PA14); experiment: EMSA

Sequence	binding [1]	binding [2]	binding [3]	binding [4]
CGATGCGCCCGTCGGCGTAGCGTTTATGTAGTTCAGCGCGCGATACACCTGTCCCTTGAAGGCGGAGGGATACGGGCTTTCCTCGTAGAAGCCGGTGGCTTCGTTGAGCACCTCCCAATCGCTGTCCTGGGTCAGCACGGCGATTCCGGGCGGGGTCGCATGATACAGGCCGTTCGTGGGGCGCCAGTATTCGATGGTTCGGGGCAT (double strand) [Unrelated DNA (control)]	no binding	no binding	–	–
GGGAGTCCAACGAAAATTTTATTTTGCAAATCCATAGACCTGTTCTAGCGTCTTTTGTAGTTCGTCGCCAGTGACGGACCAGAGGGATCGCCAAGGACAGGTTCTGCGCCGTTTTCCCTGTCATGCCTGTGATCCAGCAAGGGACTGCGATGATCAGGGCATCCCCCGATGCATTGCGCCCCCACCATTGCATCGGAGTCAGCCGCC (double strand) [Bio-PH3-T6SS left]	–	–	binds	binds
